The source of these data is patent US20260242448A1 (INSTITUTE OF MICROBIOLOGY CHINESE ACADEMY OF SCIENCES, published 2026).

Assay [1] concerns the target S protein of the SARS-CoV-2 Delta strain on pseudo-virus (SARS-CoV-2 Delta strain). Briefly: cell-based or functional assay.
In assay [2] the target is T1, S protein of the SARS-CoV-2 BA.1 strain on pseudo-virus (SARS-CoV-2 BA.1 strain). The assay can be described thus: cell-based or functional assay.
The target in assay [3] is T2, S protein of the SARS-CoV-2 BA.2.75 strain on pseudo-virus (SARS-CoV-2 BA.2.75 strain). Briefly: cell-based or functional assay.
Assay [4] concerns the target T3, S protein of the SARS-CoV-2 BA.4/5 strains on pseudo-virus (SARS-CoV-2 BA.4/5 strain). The assay can be described thus: cell-based or functional assay.
Assay [5] addresses T4, S protein of the SARS-CoV-2 BF.7 strain on pseudo-virus (SARS-CoV-2 BF.7 strain). Briefly: cell-based or functional assay.
In assay [6] the target is T5, S protein of the SARS-CoV-2 BQ.1 strain on pseudo-virus (SARS-CoV-2 BQ.1 strain). The assay can be described thus: cell-based or functional assay.
Assay [7] concerns the target T6, S protein of the SARS-CoV-2 BQ.1.1 strain on pseudo-virus (SARS-CoV-2 BQ.1.1 strain). Briefly: cell-based or functional assay.
The target in assay [8] is T7, S protein of the SARS-CoV-2 XBB strain on pseudo-virus (SARS-CoV-2 XBB strain). Briefly: cell-based or functional assay.
Assay [9] concerns the target T8, S protein of the SARS-CoV-2 XBB.1.5 strain on pseudo-virus (SARS-CoV-2 XBB.1.5 strain). Briefly: cell-based or functional assay.
The target in assay [10] is T1, S protein of the SARS-CoV-2 BA.1 strain …. Briefly: cell-based or functional assay. This is another data set of the same source.
The target of assay [11] is S protein of the SARS-CoV-2 BA.1.1 strain on pseudo-virus (SARS-CoV-2 BA.1.1 strain). The assay can be described thus: cell-based or functional assay.
The target in assay [12] is S protein of the SARS-CoV-2 BA.2 strain on pseudo-virus (SARS-CoV-2 BA.2 strain). Briefly: cell-based or functional assay.
Assay [13] deals with T2, S protein of the SARS-CoV-2 BA.2.75 …. Briefly: cell-based or functional assay. This is another data set of the same source.
The target of assay [14] is S protein of the SARS-CoV-2 BA.3 strain on pseudo-virus (SARS-CoV-2 BA.3 strain). Briefly: cell-based or functional assay.
Assay [15] has as its target T3, S protein of the SARS-CoV-2 BA.4/5 …. Briefly: cell-based or functional assay. This is another data set of the same source.
The target in assay [16] is T4, S protein of the SARS-CoV-2 BF.7 strain …. The assay can be described thus: cell-based or functional assay. The source holds these as a separate data set.
Assay [17] deals with T5, S protein of the SARS-CoV-2 BQ.1 strain …. The assay can be described thus: cell-based or functional assay. The source holds these as a separate data set.
Assay [18] concerns the target T6, S protein of the SARS-CoV-2 BQ.1.1 …. Briefly: cell-based or functional assay. This is another data set of the same source.
Assay [19] has as its target T7, S protein of the SARS-CoV-2 XBB strain …. The assay can be described thus: cell-based or functional assay. This is another data set of the same source.
Assay [20] concerns the target T8, S protein of the SARS-CoV-2 XBB.1.5 …. Briefly: cell-based or functional assay. This is another data set of the same source.
Assay [21] has as its target S protein of the SARS-CoV-2 XBB.1.16 strain on pseudo-virus (SARS-CoV-2 XBB.1.16 strain). Briefly: cell-based or functional assay.
In assay [22] the target is T9, RBD of the S protein of the BA.1.1 strain (SARS-CoV-2 BA.1.1 strain).
T9 construct: domain: RBD; also called BA.1.1 RBD
Briefly: ELISA on plate-coated RBD (1 µg/mL), HRP anti-human Fc detection, OD450.

Assay [23] addresses T10, RBD of the S protein of the BA.2.12.1 strain (SARS-CoV-2 BA.2.12.1 strain).
T10 construct: domain: RBD; also called BA.2.12.1 RBD
Described as above.

Assay [24] deals with T11, SARS-CoV-2 (BA.5) Spike RBD (SARS-CoV-2 BA.5 strain).
T11 construct: domain: RBD; also called BA.5 RBD
The assay is described as above.

Some results are limits rather than exact numbers.

B1: monoclonal antibody L4.65 (antibody, V domains shown)
VH: QITLKESGPTLVKPTQTLTLTCTFSGFSLSTSGVGVAWIRQPPGKALEWLALIYWDNDKRSSPSLNNRLTITKDTSKNQVVLTMTNMDPEDTATYYCAHFFSHYDSSNYYYGSWFDPWGQGTLVTVSS
VL: EIVLTQSPGTLSLSPGERATLSCRASQSFDSRYLGWYQQKSGQAPRLLIYGASSRATGIPDRFSGSGSGTDFTLTISRLEPEDFAVYYCQQFGDSPFTFGQGTKLEIKR
notes: also called monoclonal antibody 65; 65IgG
As usually defined, the EC50 is the concentration giving half of the maximal effect. B1: the “Neutralization activity (IC50) against pseudo-virus” value (“Neutralization activity (IC50)” for short) in assay [1] was 0.00252 µg/mL; in assay [2], 0.00135 µg/mL; in assay [3], 0.0112 µg/mL; in [4] it was 0.00138 µg/mL; in assay [5] it was 0.00212 µg/mL; in assay [6], more than 2 µg/mL. In addition, the figures for the “Neutralization activity (IC50)” value in assay [7], in assay [8] and in assay [9] were more than 2 µg/mL, 0.0214 µg/mL and 0.0541 µg/mL, respectively. The “Neutralization Effects (IC50) against SARS-CoV-2 pseudo-viruses” value (shortened to “Neutralization Effects (IC50)”) worked out at 0.000394 µg/mL in assay [10]; 0.00028 µg/mL in assay [11]; 0.00039 µg/mL in assay [12]; 0.00194 µg/mL in assay [13]; 0.00044 µg/mL in assay [14]; 0.000377 µg/mL in assay [15]. Further, the “Neutralization Effects (IC50)” value is 0.000446 µg/mL in assay [16]; 2.09 µg/mL in assay [17]; 4.58 µg/mL in assay [18]; 0.00335 µg/mL in assay [19]; 0.0137 µg/mL in [20]; 0.0103 µg/mL in [21]. In addition, the EC50 in assay [22] was determined as 5.92 pM; in assay [23] it was 64.1 pM; in assay [24], 105 pM.

B2: monoclonal antibody CoV56 (antibody, V domains shown)
VH: EVQLVESGGGVVQPGGSLRLSCAVSGFTFDDYAMHWVRQAPGKGLDWVSLISGDGSYTYYADSVKGRFTISRDSSKNSLYLQMNSLRTEDTALYYCAKAQTPTLWWLQDAFDIWGQGTMVTVSS
VL: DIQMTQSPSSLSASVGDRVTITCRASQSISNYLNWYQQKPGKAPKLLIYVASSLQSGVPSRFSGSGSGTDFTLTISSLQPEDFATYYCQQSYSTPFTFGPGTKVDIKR
notes: also called monoclonal antibody 56; 56IgG
With B2, the “Neutralization activity (IC50)” value in [1], in [2], in assay [3], in assay [4], in assay [5] and in [6] was more than 2 µg/mL each time. Further, the “Neutralization activity (IC50)” value in assay [7], in [8] and in assay [9] was more than 2 µg/mL each time. Besides, the “Neutralization Effects (IC50)” value in [10] turned out to be 14.8 µg/mL; in [11] it was 10.8 µg/mL; in assay [12] it was 8.32 µg/mL; in [13], 58.8 µg/mL; in assay [14], 18.5 µg/mL; in assay [15] it was 7.53 µg/mL. Besides, the “Neutralization Effects (IC50)” value in [16] was 11.7 µg/mL; in assay [17] it was 19.6 µg/mL; in assay [18], 15.9 µg/mL; in assay [19], 15.9 µg/mL; in [20] it was 11.8 µg/mL; in [21] it was 21.7 µg/mL. Moreover, the EC50 was 45.4 pM in assay [22], 83.9 pM in assay [23] and 167 pM in assay [24].
